From paper PMC2919228 (Molecular cell, 2010) come the findings set out here.

This assay concerns the target Skp1-GST/Cdc4-HA (Saccharomyces cerevisiae, UniProt P52286 1-194; P07834 1-779). The experiment in a line: pull-down.

Sequence of Skp1-GST/Cdc4-HA (P52286 whole entry, chain 1 of 2): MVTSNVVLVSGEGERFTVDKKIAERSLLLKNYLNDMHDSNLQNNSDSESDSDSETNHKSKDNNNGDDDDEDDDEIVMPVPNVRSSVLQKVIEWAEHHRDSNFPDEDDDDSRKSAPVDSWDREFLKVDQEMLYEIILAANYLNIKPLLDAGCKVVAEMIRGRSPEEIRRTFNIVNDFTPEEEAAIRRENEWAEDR
Sequence of Skp1-GST/Cdc4-HA (P07834 whole entry, chain 2 of 2): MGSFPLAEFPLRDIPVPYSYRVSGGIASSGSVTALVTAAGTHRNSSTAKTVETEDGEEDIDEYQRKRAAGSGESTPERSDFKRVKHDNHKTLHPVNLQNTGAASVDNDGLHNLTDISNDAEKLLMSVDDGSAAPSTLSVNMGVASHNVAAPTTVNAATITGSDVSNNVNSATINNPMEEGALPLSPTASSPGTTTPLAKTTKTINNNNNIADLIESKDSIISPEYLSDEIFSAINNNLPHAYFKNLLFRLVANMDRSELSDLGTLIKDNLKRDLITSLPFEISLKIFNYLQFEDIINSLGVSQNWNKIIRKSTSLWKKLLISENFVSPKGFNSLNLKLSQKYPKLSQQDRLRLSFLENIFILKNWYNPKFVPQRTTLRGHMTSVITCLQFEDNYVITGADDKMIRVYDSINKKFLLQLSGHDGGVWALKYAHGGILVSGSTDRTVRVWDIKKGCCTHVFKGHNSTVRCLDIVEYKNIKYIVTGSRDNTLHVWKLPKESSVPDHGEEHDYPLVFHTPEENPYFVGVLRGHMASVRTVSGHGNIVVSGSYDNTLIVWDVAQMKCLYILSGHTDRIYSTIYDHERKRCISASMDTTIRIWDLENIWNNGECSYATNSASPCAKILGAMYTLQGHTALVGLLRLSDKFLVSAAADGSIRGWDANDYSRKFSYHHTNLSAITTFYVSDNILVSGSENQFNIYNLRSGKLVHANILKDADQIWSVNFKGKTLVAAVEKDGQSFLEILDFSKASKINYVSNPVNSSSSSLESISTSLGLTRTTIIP

B1: Gpa1-Flag (natural protein, Saccharomyces cerevisiae, UniProt P08539 1-472, looked up)
chain: MGCTVSTQTIGDESDPFLQNKRANDVIEQSLQLEKQRDKNEIKLLLLGAGESGKSTVLKQLKLLHQGGFSHQERLQYAQVIWADAIQSMKILIIQARKLGIQLDCDDPINNKDLFACKRILLKAKALDYINASVAGGSDFLNDYVLKYSERYETRRRVQSTGRAKAAFDEDGNISNVKSDTDRDAETVTQNEDADRNNSSRINLQDICKDLNQEGDDQMFVRKTSREIQGQNRRNLIHEDIAKAIKQLWNNDKGIKQCFARSNEFQLEGSAAYYFDNIEKFASPNYVCTDEDILKGRIKTTGITETEFNIGSSKFKVLDAGGQRSERKKWIHCFEGITAVLFVLAMSEYDQMLFEDERVNRMHESIMLFDTLLNSKWFKDTPFILFLNKIDLFEEKVKSMPIRKYFPDYQGRVGDAEAGLKYFEKIFLSLNKTNKPIYVKRTCATDTQTMKFVLSAVTDLIIQQNLKKIGII
For the molecule B1, the binding result is “binds”.
